Measurements: patent US9738911B2, “Methods of producing 7-carbon chemicals via pyruvate and succinate semialdehyde aldol condensation” (INVISTA North America S.a r.l., priority 2012, dated 2017)

Test: Carboxylate reductase activity assay, N7-acetyl-7-aminoheptanoate to N7-acetyl-7-aminoheptanal
Assay type: biochemical
Conditions: 2 mM N7-acetyl-7-aminoheptanoate, 1 mM ATP, 1 mM NADPH, enhanced by sfp gene product, room temperature, 20 min; against empty vector control (FIG. 12)
Experimental: The activity of each of the N-terminal His-tagged carboxylate reductases of SEQ ID NOs: 3, 6, and 7 (see Examples 4, and FIGS. 7B, 7E, and 7F) for converting N7-acetyl-7-aminoheptanoate to N7-acetyl-7-aminoheptanal was assayed in triplicate in a buffer composed of a final concentration of 50 mM HEPES buffer (pH=7.5), 2 mM N7-acetyl-7-aminoheptanoate, 10 mM MgCl2, 1 mM ATP, and 1 mM NADPH. The assays were initiated by adding purified carboxylate reductase and phosphopantetheine transferase or the empty vector control to the assay buffer containing the N7-acetyl-7-aminoheptanoate then incubated at room temperature for 20 min. The consumption of NADPH was monitored by absorbance at 340 nm.

B1: SEQ ID NO 6: Mycobacterium massiliense carboxylate reductase (Genbank Accession No. EIV 11143.1) (protein)
chain: MTNETNPQQEQLSRRIESLRESDPQFRAAQPDPAVAEQVLRPGLHLSEAIAALMTGYAERPALGERARELVIDQDGRTTLRLLPRFDTTTYGELWSRTTSVAAAWHHDATHPVKAGDLVATLGFTSIDYTVLDLAIMILGGVAVPLQTSAPASQWTTILAEAEPNTLAVSIELIGAAMESVRATPSIKQVVVFDYTPEVDDQREAFEAASTQLAGTGIALETLDAVIARGAALPAAPLYAPSAGDDPLALLIYTSGSTGAPKGAMHSENIVRRWWIREDVMAGTENLPMIGLNFMPMSHIMGRGTLTSTLSTGGTGYFAASSDMSTLFEDMELIRPTALALVPRVCDMVFQRFQTEVDRRLASGDTASAEAVAAEVKADIRDNLFGGRVSAVMVGSAPLSEELGEFIESCFELNLTDGYGSTEAGMVFRDGIVQRPPVIDYKLVDVPELGYFSTDKPHPRGELLLKTDGMFLGYYKRPEVTASVFDADGFYMTGDIVAELAHDNIEIIDRRNNVLKLSQGEFVAVATLEAEYANSPVVHQIYVYGSSERSYLLAVVVPTPEAVAAAKGDAAALKTTIADSLQDIAKEIQLQSYEVPRDFIIEPQPFTQGNGLLTGIAKLARPNLKAHYGPRLEQMYAEIAEQQAAELRALHGVDPDKPALETVLKAAQALLGVSSAELAADAHFTDLGGDSLSALSFSDLLRDIFAVEVPVGVIVSAANDLGGVAKFVDEQRHSGGTRPTAETVHGAGHTEIRAADLTLDKFIDEATLHAAPSLPKAAGIPHTVLLTGSNGYLGHYLALEWLERLDKTDGKLIVIVRGKNAEAAYGRLEEAFDTGDTELLAHFRSLADKHLEVLAGDIGDPNLGLDADTWQRLADTVDVIVHPAALVNHVLPYNQLFGPNVVGTAEIIKLAITTKIKPVTYLSTVAVAAYVDPTTFDEESDIRLISAVRPIDDGYANGYGNAKWAGEVLLREAHDLCGLPVAVFRSDMILAHSRYTGQLNVPDQFTRLILSLIATGIAPGSFYQAQTTGERPLAHYDGLPGDFTAEAITTLGTQVPEGSEGFVTYDCVNPHADGISLDNFVDWLIEAGYPIARIDNYTEWFTRFDTAIRGLSEKQKQHSLLPLLHAFEQPSAAENHGVVPAKRFQHAVQAAGIGPVGQDGTTDIPHLSRRLIVKYAKDLEQLGLL
modifications: Mycobacterium massiliense
substrate acceptance, consumption of NADPH by absorbance at 340 nm: accepted N7-acetyl-7-aminoheptanoate as substrate
